According to patent US20210395381A1 (OSSIANIX, published 2021):

Assays:
recombinant human TfR-1 = target: T1, recombinant human TfR-1 (human, UniProt P02786 89-760); test: phage ELISA
T1 construct: extracellular domain; also called hTfR1; human transferrin receptor-1
Description: (§1) After the third round of selection, instead of pooling bacterial colonies, individual phagemid clones were grown in 1 ml of 2TY medium containing glucose and ampicillin in 96-well blocks and used to rescue the phages. After an overnight culturing, bacteria were spun down and an aliquot of the phage supernatant was sent for Sanger sequencing (Genewiz); VNAR CDR3 sequences were identified using BioEdit (a sequence alignment editor). Another aliquot was blocked with 2.5% milk for phage ELISAs. High-binding ELISA plates (Greiner) were coated with 1 μg/ml of recombinant human or mouse TfR-1. The plates were then blocked with 2.5% milk in PBST. Blocked phages were added to the blocked plates and the VNAR-phage clones binding to the antigens were detected with HRP-labelled anti-M13 coat protein antibodies (Sino Biological), and chromogenic TMB substrate (KLM)

recombinant mouse TfR-1 = target: T2, recombinant mouse TfR-1 (mouse, UniProt Q62351 89-763); test: phage ELISA
T2 construct: Bought recombinant protein; also called mTfR1
Description: as §1

T2 sequence (Q62351 89-763 limits assumed): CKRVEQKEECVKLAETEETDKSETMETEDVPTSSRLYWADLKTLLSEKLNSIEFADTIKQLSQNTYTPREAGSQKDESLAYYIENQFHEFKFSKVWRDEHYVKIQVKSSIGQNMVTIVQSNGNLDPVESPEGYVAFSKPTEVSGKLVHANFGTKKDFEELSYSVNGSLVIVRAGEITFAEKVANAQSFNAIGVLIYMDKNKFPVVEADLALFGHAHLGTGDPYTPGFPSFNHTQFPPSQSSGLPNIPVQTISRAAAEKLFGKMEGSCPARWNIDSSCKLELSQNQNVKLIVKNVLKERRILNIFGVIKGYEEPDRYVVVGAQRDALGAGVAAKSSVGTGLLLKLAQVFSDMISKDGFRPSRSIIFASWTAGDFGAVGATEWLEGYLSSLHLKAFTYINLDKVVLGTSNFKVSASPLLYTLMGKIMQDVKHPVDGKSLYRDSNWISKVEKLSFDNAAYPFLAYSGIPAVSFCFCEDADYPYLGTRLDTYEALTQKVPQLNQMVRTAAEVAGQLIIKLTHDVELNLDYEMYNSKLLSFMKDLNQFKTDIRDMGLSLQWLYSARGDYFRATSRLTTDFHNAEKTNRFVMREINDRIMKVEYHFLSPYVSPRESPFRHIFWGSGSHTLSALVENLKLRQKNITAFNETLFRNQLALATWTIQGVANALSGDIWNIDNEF
T1 sequence (P02786 89-760): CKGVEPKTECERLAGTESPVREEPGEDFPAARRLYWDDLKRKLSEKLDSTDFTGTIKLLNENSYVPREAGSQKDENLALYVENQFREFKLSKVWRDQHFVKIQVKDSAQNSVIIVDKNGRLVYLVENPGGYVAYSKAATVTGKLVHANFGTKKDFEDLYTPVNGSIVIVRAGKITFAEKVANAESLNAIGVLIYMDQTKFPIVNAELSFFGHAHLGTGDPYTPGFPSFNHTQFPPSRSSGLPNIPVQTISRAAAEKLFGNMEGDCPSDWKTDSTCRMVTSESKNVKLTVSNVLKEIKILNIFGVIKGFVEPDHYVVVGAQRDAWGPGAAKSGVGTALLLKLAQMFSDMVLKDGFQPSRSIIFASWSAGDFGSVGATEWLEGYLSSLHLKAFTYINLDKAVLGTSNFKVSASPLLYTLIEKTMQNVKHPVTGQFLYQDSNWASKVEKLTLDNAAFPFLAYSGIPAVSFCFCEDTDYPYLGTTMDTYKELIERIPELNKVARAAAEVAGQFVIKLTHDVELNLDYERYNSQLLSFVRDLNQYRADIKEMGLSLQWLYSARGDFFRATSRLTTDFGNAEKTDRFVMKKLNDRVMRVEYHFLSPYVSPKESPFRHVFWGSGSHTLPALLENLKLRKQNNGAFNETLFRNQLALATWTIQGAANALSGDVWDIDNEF

B1: Clone 20 (VNAR)
VNAR: ARVDQTPRSVTKETGESLTINCVLRDSNCALPSTYWYRKKSGSTNEESISKGGRYVETVNSGSKSFSLRINDLTVKDSGTYRCNVKWDCRYQCICVSADVYGDGTAVTVNA
notes: VNAR on phage
B1: binds (recombinant human TfR-1); binds (recombinant mouse TfR-1).

B2: Clone 51 (VNAR)
VNAR: ARVDQTPQTITKETGESLTINCVLRDSNCALSSTLWYRTKSGSRNEESISKGGRYVETVNSGSKSFSLRINDLVVEDSGTYRCKVSHSGLCQYCHDLEDDVYGDGTAVTVNA
notes: VNAR on phage
B2: no binding (recombinant mouse TfR-1).

B3: Clone 18 (VNAR)
VNAR: ARVDQTPQTITKETGESLTINCVLRDSNCALSSTYWYRKKSDSTNEESISKGGRYVETVNSGSKSFSLRINDLTVEDSGTYRCKVCTGMSCPCLGRRQTDVYGGGTAVTVNA
notes: VNAR on phage
B3: binds (recombinant human TfR-1); binds (recombinant mouse TfR-1).

B4: Clone 53 (VNAR)
VNAR: ARVDQTPQTITKETGESLTINCVLRDSNCALSSTYWYRKKSDSTNEESISKGGRYVETVNSGSKSFSLRINDLTVKDSGTYRCNVYLQDRPVCSPFNYDVYGGGTAVTVNA
notes: VNAR on phage
B4: no binding (recombinant mouse TfR-1).

B5: Clone 16 (VNAR)
VNAR: ARVDQTPQTITKETGESLTINCVLRDSNCALSSTYWYRKKSGSTNEENISKGGRYVETVNSGSKSFSLRINDLTVEDSGTYRCKVQSAQGMGLNGCKPGRVDVYGDGTAVTVNA
notes: VNAR on phage
B5: binds (recombinant human TfR-1); binds (recombinant mouse TfR-1).

B6: Clone 54 (VNAR)
VNAR: ARVDQTPQTITKETGESLTINCVLRDSNCALPITYWYRKKSGSTNEESISKGGRYVETVNSGSKSFSLRINDLTVKDSGTYRCNVGAQYCDREISDVYGDGTAVTVNA
notes: VNAR on phage
B6: no binding (recombinant mouse TfR-1).

B7: Clone 34 (VNAR)
VNAR: PRVDQTPQTITKETGESLTINCVLRDSNCALSSTYWYRKKSGSTNEESISKGGRYVETVNSGSKSFSLRINDLTVEDSGTYRCNVSSNAHCDGRRRDVYGGGTAVTVNA
notes: VNAR on phage
B7: no binding (recombinant mouse TfR-1).

B8: Clone 24 (VNAR)
VNAR: ARVDQTPQTITKETGESLTINCVLRDSNCALPSTYWYRKKSGSTNEESISKGGRYVETVNSGSKSFSLRINDLTVKDSGTYRCKVGPRCMGPNWQSYSCDVYGGGTVVTVNA
notes: VNAR on phage
B8: binds (recombinant human TfR-1); binds (recombinant mouse TfR-1).

B9: Clone 10 (VNAR)
VNAR: ARVDQTPQTITKETGESLTINCVLRDSNCALSNLYWYRKKSGSTNEESISLGGRYVETVNSGSKSFSLRINDLTVEDSGTYRCNVVQYPTAKCRQVDVYGGGTAVTVNA
notes: VNAR on phage
B9: binds (recombinant human TfR-1); binds (recombinant mouse TfR-1).

B10: Clone 14 (VNAR)
VNAR: ARVDQTPQTITKETGESLTINCVLRDSNCALPSTYWYRKKSGSTNEESISKGGRYVETVNSGSKSFSLRINDLTVKDSGTYRCNVMVFQVSGDYSRLEDVYGGGTVVTVNA
notes: VNAR on phage
B10: binds (recombinant human TfR-1); binds (recombinant mouse TfR-1).

B11: Clone 17 (VNAR)
VNAR: ARVDQTPQTITKETGESLTINCVLRDSNCALSNLYWYRKKSGSTNEESISLGGRYVETVNSGSKSFSLRINDITVEDSGRYRCNVYNFFTYQCRWFQSDVYGDGTAVTVNA
notes: VNAR on phage
B11: binds (recombinant human TfR-1); binds (recombinant mouse TfR-1).

B12: Clone 56 (VNAR)
VNAR: ARVDQTPQTITKETGESLTINCVLRDSNCALSSTYWYRKKSDSTNEESISKGGRYVETVNSGSKSFSLRINDLVVEDSGTYRCNVQSKEKLHCQVVVDVYGGGTAVTVNA
notes: VNAR on phage
B12: no binding (recombinant mouse TfR-1).

B13: Clone 1 (VNAR)
VNAR: ARVDQTPQTITKETGESLTINCVLRDNNCALSTTYWYRKKSGSTNEESISLGGRYVETVNSGSKSFSLRINDLTVEDSGTYRCNVSDVVSCDDGWNWLDVYGGGTAVTVNA
notes: VNAR on phage
B13: binds (recombinant human TfR-1); binds (recombinant mouse TfR-1).

B14: Clone 55 (VNAR)
VNAR: PRVDQTPQTITKETGESLTINCVLRDSNCALSSTLWYRTKSGSRNEESISKGGRYVETVNSGSKSFSLRINDLTVEDSGTYRCNVWCLTLGCSGKWDVYGGGTAVTVNA
notes: VNAR on phage
B14: no binding (recombinant mouse TfR-1).

B15: Clone 22 (VNAR)
VNAR: ARVDQTPQTITKETGESLTINCVLRDSNCALSNLYWYRKKSGSTNEESISLGGRYVETVNSGSKSFSLRINDLTVEDSGTYRCNVQQQSSGTFYDVYGGGTAVTVNA
notes: VNAR on phage
B15: binds (recombinant human TfR-1); binds (recombinant mouse TfR-1).

B16: Clone 11 (VNAR)
VNAR: ARVDQTPQTITKETGESLTINCVLRDSNCALPSTYWYRKKSGSTNEESISKGGRYVETVNSGSKSFSLRINDLTVEDSGTYRCNVQWLWSFSCLPCVEDVYGGGTVVTVNA
notes: VNAR on phage
B16: binds (recombinant human TfR-1); binds (recombinant mouse TfR-1).

B17: Clone 13 (VNAR)
VNAR: ARVDQTPQTITKQTGESLTINCVLRDSNCALSSTYWYRKKSGSTNEESISLGGRYVETVNSGSKSFSLRINDLTVEDSGTYRCNVRRLQAWGSCRGGDVYGGGTVVTVNA
notes: VNAR on phage
B17: binds (recombinant human TfR-1); binds (recombinant mouse TfR-1).

B18: Clone 40 (VNAR)
VNAR: ARVDQTPQTITKETGESLTINCVLRDSNCALSSTYWYRKKSGSTNEESISKGGRYVETVNSGSKSFSLRINDLTVEDSGTYRCKVVQFEKDCQGLLRQTNDVYGGGTVVTVNA
notes: VNAR on phage
B18: no binding (recombinant mouse TfR-1).

B19: Clone 35 (VNAR)
VNAR: ARVDQTPQTITKETGESLTINCVLRDSNCALSSTYWYRKKSDSTNEESISKGGRYVETVNSGSKSFSLRINDLTVKDSGTYRCNVSEDLQAICCWNDVYGDGTAVTVNA
notes: VNAR on phage
B19: no binding (recombinant mouse TfR-1).

B20: Clone 37 (VNAR)
VNAR: ARVDQTPQTITKETGESLTINCVLRDSNCALSSTYWYRKKSDSTNEESISKGGRYVETVNSGSKSFSLRINDLTVKDSGTYRCNVSEDLQAICCWNDVYGDGTAVTVNA
notes: VNAR on phage
B20: no binding (recombinant mouse TfR-1).

B21: Clone 60 (VNAR)
VNAR: ARVDQTPQTITKETGESLTINCVLRDSNCDLSRTYWYRKKSGSTNEESISKGGRYVETVNSGSKSFSLRINDLTVEDSGTYRCNVYNPGNGWAMYDVYGGGTAVTVNA
notes: VNAR on phage
B21: no binding (recombinant mouse TfR-1).

B22: Clone 19 (VNAR)
VNAR: ARVDQTPQTITKETGESLTINCVLRDSNCALSSTYWYRKKSGSTNEESISKGGRYVETVNSGSKSFSLRINDLTVEDSGTYRCNVGQAQRLRSNVDDVYGGGTVVTVNA
notes: VNAR on phage
B22: binds (recombinant human TfR-1); binds (recombinant mouse TfR-1).

B23: Clone 36 (VNAR)
VNAR: ARVDQTPQTITKETGESLTINCVLRDSNCALPSTYWYRKKSGSTNEESISKGGRYVETVNSGSKSFSLRINDLVVEDSGTYRCNVHCYGGDLHQLDVYGGGTAVTVNA
notes: VNAR on phage
B23: no binding (recombinant mouse TfR-1).

B24: Clone 58 (VNAR)
VNAR: ARVDQTPQTITKETGESLTINCVLRDSNCELSSTYWYRKKSGSTNEARISKGGRYVETVNSGSKSFSLRINDLTVEDSGTYRCNVGFSQSWGNSVGIVDVYGGGTAVTVNE
notes: VNAR on phage
B24: no binding (recombinant mouse TfR-1).

B25: Clone 2 (VNAR)
VNAR: ARVDQTPQTITKETGESLTINCVLRDSNCELSSTYWYRKKSDSTNEASISKGGRYVETVNSGSKSFSLKINDLTVEDSGTYRCNVFTSDSYDLGDVYGGGTVVTVNA
notes: VNAR on phage
B25: binds (recombinant human TfR-1); binds (recombinant mouse TfR-1).

B26: Clone 15 (VNAR)
VNAR: ARVDQTPRSVTKETGESLTINCVLRDASYELGSTCWYRKKSGSTNEESISKGGRYVETVNSGSKSFSLRINDLTVEDGGTYRCGAPRWQMGGQWCDGGTAACRSGMAEVAACGDGTAVTVNA
notes: VNAR on phage
B26: binds (recombinant human TfR-1); binds (recombinant mouse TfR-1).

B27: Clone 23 (VNAR)
VNAR: ARVDQTPQTVTKETGESLTINCVLRDSNCDLSRTYWYRKKSGSTNEESISKGGRYVETVNSGSKSFSLRINDLTVEDSGTYRCNVGGDLCGDQRDVYGGGTAVTVNA
notes: VNAR on phage
B27: binds (recombinant human TfR-1); binds (recombinant mouse TfR-1).

B28: Clone 52 (VNAR)
VNAR: PRVDQTPQTITKETGESLTINCVLRDSNCALSSTYWYRKKSGSTNEENISKGGRYVETVNSGSKSFSLRINDLTVEDSGTYRCNVAFFACQYKNDVYGGGTVVTVNA
notes: VNAR on phage
B28: no binding (recombinant mouse TfR-1).

B29: Clone 21 (VNAR)
VNAR: ARVDQTPRVTKETGESLTINCVLRDNNCALSTTYWYRKKSGSTNEENISKGGRYVETVNSGSKSFSLRINDLTVEDSGTYRCNVYMTACSNDMDVYGGGTVVTVNA
notes: VNAR on phage
B29: binds (recombinant human TfR-1); binds (recombinant mouse TfR-1).

B30: Clone 12 (VNAR)
VNAR: ARVDQTPRSVTKETGESLTINCVLRDASYELGSTCWYRKKSGSTNEESISKGGRYVETVNSGSKSFSLRINDLTVEDGGTYRCGAWSRLSSSWGCDVGLQCMGCWDLWAACGDGTAVTVNA
notes: VNAR on phage
B30: binds (recombinant human TfR-1); binds (recombinant mouse TfR-1).

B31: Clone 39 (VNAR)
VNAR: ARVDQTPQTITKETGESLTINCVLRDSNCELSSTYWYRKKSGSTNEESISLGGRYVETVNSGSKSFSLRINDLTVEDSGTYRCNVQSAMLMLCLSRFDVYGGGTAVTVNA
notes: VNAR on phage
B31: no binding (recombinant mouse TfR-1).
